Experimental findings from paper PMC8800109 (iScience, 2022) are described below.

Where two headings read alike, the source gives them in different places.

Experiment [1] has as its target recombinant form of hFcRn immobilized on the analytical FcRn column (UniProt P55899). The experiment can be described thus: analytical hFcRn affinity chromatography.
Experiment [2] concerns the target briakinumab-YTE/IL12 (human) (UniProt P29460). The experiment can be described thus: MST.
In experiment [3] the target is briakinumab/IL12 (human) (UniProt P29460). Nature of the experiment: MST.
In experiment [4] the target is briakinumab (human). Nature of the experiment: MST.
For experiment [5], the target named is briakinumab-YTE (human). Nature of the experiment: MST.
Experiment [6] deals with ustekinumab-YTE/IL12 (human) (UniProt P29460). The experiment can be described thus: MST.
The target of experiment [7] is briakinumab (human). The experiment can be described thus: SPR.
The target in experiment [8] is ustekinumab-YTE (human). The experiment can be described thus: SPR.
In experiment [9] the target is briakinumab-YTE (human). The experiment can be described thus: SPR.
Experiment [10] deals with ustekinumab (human). Nature of the experiment: SPR.
Experiment [11] concerns the target briakinumab-YTE/IL12 (human) (UniProt P29460). Nature of the experiment: MST. The source holds these as a separate data set.
A further experiment addresses ustekinumab/IL12 (human) (UniProt P29460). The experiment can be described thus: MST.
For experiment [12], the target named is briakinumab/IL12 (human) (UniProt P29460). The experiment can be described thus: MST. This is another data set of the same source.
The target in experiment [13] is briakinumab (human). Nature of the experiment: MST. The source holds these as a separate data set.
The target of experiment [14] is ustekinumab-YTE (human). Nature of the experiment: MST.
In experiment [15] the target is briakinumab-YTE (human). The experiment can be described thus: MST. This is another data set of the same source.
Experiment [16] addresses ustekinumab-YTE/IL12 (human) (UniProt P29460). Nature of the experiment: MST. The source holds these as a separate data set.
Experiment [17] has as its target ustekinumab (human). Nature of the experiment: MST.
The next experiment addresses recombinant human IL-12 (Homo sapiens, UniProt P29460;P29459). The experiment can be described thus: ELISA.

recombinant form of hFcRn immobilized on the analytical FcRn column, sequence (P55899 24-297, chain 1 of 2): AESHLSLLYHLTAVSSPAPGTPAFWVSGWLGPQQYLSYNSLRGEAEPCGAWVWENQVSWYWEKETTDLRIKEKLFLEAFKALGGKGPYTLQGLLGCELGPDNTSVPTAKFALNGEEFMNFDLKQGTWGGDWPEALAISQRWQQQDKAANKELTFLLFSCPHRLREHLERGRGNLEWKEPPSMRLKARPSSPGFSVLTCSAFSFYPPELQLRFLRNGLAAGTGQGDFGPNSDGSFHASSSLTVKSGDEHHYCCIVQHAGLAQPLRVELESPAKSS
recombinant form of hFcRn immobilized on the analytical FcRn column, sequence (P61769 21-119, chain 2 of 2, further chain): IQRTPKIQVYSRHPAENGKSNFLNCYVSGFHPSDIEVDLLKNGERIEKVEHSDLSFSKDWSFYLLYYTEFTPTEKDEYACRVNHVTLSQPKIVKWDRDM

On to ustekinumab (antibody), for which, in [1], the elution pH from the hFcRn column is 7.2 pH.

Turning to “truncated monomeric His-tagged hFcRn (from UniProt P55899 24-365; P61769 21-119) (receptor)”, the Kd is greater than 4000 nM in experiment [2]; greater than 10000 nM with briakinumab/IL12 (human) [3]; greater than 25000 nM with briakinumab (human) [4]; greater than 20000 nM in the experiment with briakinumab-YTE (human) [5]; greater than 20000 nM in [6]; 545 nM with briakinumab (human) [7]. Further, the equilibrium dissociation constant (Kd) stood at 95.5 nM in the experiment with ustekinumab-YTE (human) [8]; 64 nM in the experiment with briakinumab-YTE (human) [9]; 653 nM in the experiment with ustekinumab (human) [10]; 98 nM in [11]; 1000 nM with ustekinumab/IL12 (human); 533 nM with briakinumab/IL12 (human) [12]. For the same molecule, the Kd was 599 nM in the experiment with briakinumab (human) [13]; 100 nM in the experiment with ustekinumab-YTE (human) [14]; 79 nM in the experiment with briakinumab-YTE (human) [15]; 78 nM in experiment [16]; 497 nM in the experiment with ustekinumab (human) [17].

Take ustekinumab-YTE (antibody): the elution pH from the hFcRn column in experiment [1] was determined as 7.9 pH.

B1: briakinumab (antibody, V domains shown)
VH: QVQLVESGGGVVQPGRSLRLSCAASGFTFSSYGMHWVRQAPGKGLEWVAFIRYDGSNKYYADSVKGRFTISRDNSKNTLYLQMNSLRAEDTAVYYCKTHGSHDNWGQGTMVTVSS
VL: QSVLTQPPSVSGAPGQRVTISCSGSRSNIGSNTVKWYQQLPGTAPKLLIYYNDQRPSGVPDRFSGSKSGTSASLAITGLQAEDEADYYCQSYDRYTHPALLFGTGTKVTVL
Consider B1, for which the binding result in the experiment with recombinant human IL-12 is “binds”.

B2: briakinumab-YTE (antibody, V domains shown)
VH: B1 VH
VL: B1 VL
As for B2, the binding result in the experiment with recombinant human IL-12 is on record as “binds”.
